In patent EP1988097A1 (dated 2008):

Columns and labels:
[1] = molecular target: T1, P501S peptide on HLA-B*51:01:01 (human); assay: stated without data
T1 peptide: SACDVSVRV

[2] = molecular target: T2, P501S peptide on HLA-B*51:01:01 (human); assay: cytokine release
T2 peptide: ASACDVSVRV

B1: TCR of the P501S-specific T cell clone 4E5 (TCR, V domains shown)
Valpha: AQKITQTQPGMFVQEKEAVTLDCTYDTSDQSYGLFWYKQPSSGEMIFLIYQGSYDEQNATEGRYSLNFQKARKSANLVISASQLGDSAMYFCAMREGAGGGNKLTFGTGTQLKVEL
Vbeta: ETGVTQTPRHLVMGMTNKKSLKCEQHLGHNAMYWYKQSAKKPLELMFVYSLEERVENNSVPSRFSPECPNSSHLFLHLHTLQPEDSALYLCASSQDRTSSSYEQYFGPGTRLTVT
binding result [1]: recognises
binding result [2]: recognises
